Measured values: PMC4756287

Key:
[1] = target: Lhcb1,2 (major components of LHCII trimers); assay: native gel or EMSA; BN-PAGE of purified LHCII trimers (3 μg of Chl) solubilized in 0.3, 0.6 and 1% α-DDM
[2] = target: Lhcb1,2 (major components of LHCII trimers); assay: native gel or EMSA; BN-PAGE (4-12.5%) followed by Tricine-SDS PAGE (2D-PAGE), Coomassie; isolated thylakoids, 8 μg Chl, 0.5 mg/ml Chl in 25 mM BisTris/HCl pH 7.0, 20% glycerol, solubilized with 1% α-DDM (0.6 and 1.5% as controls); plants grown under GL200, GL600, GL1800 or shifted 0.5, 2, 6 h to GL1800
[3] = target: Photosystem II core (C) (Arabidopsis thaliana (endogenous in leaf thylakoids)) (UniProt P83755); assay: as above

stoichiometry N [1]	stoichiometry N [2]	stoichiometry N [3]	Substance
3	3	–	Lhcb1,2 (major components of LHCII trimers)
–	–	2	Photosystem II core (C) (from UniProt P83755 1-344; P56761 1-353; P56777 1-508; P56778 15-473; P23321 86-332) (complex)
